Experimental findings from US20160347831A1 (F HOFFMAN LA ROCHE, published 2016) are described below.

To fix the notation:
T1: Aβ fragment 1-16 (human)
T1 construct: also called Aβ1-16; Aβ16
T1 peptide: DAEFRHDSGYEVHHQK

T2: Aβ fragment 29-40 (human)
T2 peptide: GAIIGLMVGGVV

B1: Aβ fragment 16-35 (peptide)
peptide: KLVFFAEDVGSNKGAIIGLM
notes: this fragment is not in the list of fragments tested (1-16, 10-20, 15-25, 22-35, 29-40); also called AP 16-35
B2: VHH R3VQ (VHH)
VHH: EVQLQASGGGLVQTGDSLRLSCADSGSTFRNYNIGWFRQTPGQAREFVAAVSRTGISTHVADSLQGRFTISRDNAKNTVYLQMNSLKPEDTAVYSCAAGRPGVGAVNRAMDYDYWGQGTQVTVSS
notes: Expressed with a His tag or a Strep tag; also called R3VQ(His)-NH2 1; R3VQ-NH2 1; not shown: 6-Histidine tag (pET23) or Strep tag (pASK IBA2) from the vector
B3: R3VQ(His)-N-(DOTA/Gd) conjugate 2c (VHH)
VHH: B2 VHH
modifications: DOTA/Gd randomly distributed on lysine residues; average Gd/protein (1) 2 (3)
notes: Non-site-specific conjugate; not shown: 6-Histidine tag from pET23
B4: R3VQ(His)-N-(DOTA/Gd) conjugate 2d (VHH)
VHH: B2 VHH
modifications: DOTA/Gd randomly distributed on lysine residues; average Gd/protein (1) 2 (3)
notes: as for B3

In the assay “VHH R3VQ” the target is B2. Nature of the assay: competition ELISA, soluble Aβ fragment against antigen-coated plate. How it is done: (§1) The binding affinity of VHHs was determined as previously described (Friguet B. et al., 1985, Immunol Methods, 77:305-19). Briefly, various concentrations of Aβ peptides (A13 fragments 1-16, 10-20, 15-25, 22-35 and 29-40) were incubated in solution overnight at 4° C. with a known quantity of VHH until equilibrium was reached. The VHH concentration used was determined by preliminary ELISA calibrations. Each mixture (100 μl) was transferred to a well of a microtiter plate previously coated with antigen and was incubated for 20 min at 4° C. The plates were washed with buffer 0.1% Tween 20 in PBS and bound VHHs were detected by adding beta-galactosidase-conjugated goat anti-rabbit Igs (Biosys, Compiegne, France) and 4-methylumbelliferyl […] (Sigma). Fluorescence was read (Fluoroskan, Labsystem, Finland) at 460 nm, after excitation at 355 nm. KD was estimated from the slope of the regression curve obtained by plotting the reciprocal of the fraction of bound antibody versus the reciprocal of the molar concentration of antigen.
In general terms: In an ELISA, binding on a coated surface is turned into a signal by an enzyme label.

The next assay has as its target T3, A-beta 42 peptide (Aβ42) (human).
T3 construct: Synthetic peptide (Bachem); incubated to give the fibrillar form for immunisation; also called Aβ1-42; fibrillar synthetic Aβ42 peptide
Put plainly: competition ELISA in solution (Friguet method). How it is done:
as §1

The next assay deals with T1, Aβ fragment 1-16. Nature of the assay: competition ELISA with soluble Aβ fragments. The procedure: as §1
A further assay has as its target T2, Aβ fragment 29-40. Nature of the assay: competition ELISA with soluble Aβ fragments. How it is done:
as §1

A further assay addresses T4, A-beta 40 (Aβ40) (human).
T4 construct: ELISA methods say 'A-beta 40 or A-beta 42 (preferably A-beta 40)'; also called Aβ1-40; biotinylated A-beta 40
Nature of the assay: ELISA on biotinylated Aβ40 (or Aβ42).

T4 sequence (peptide, as listed by the source): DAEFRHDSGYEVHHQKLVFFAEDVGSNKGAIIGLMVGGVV
T3 sequence (peptide, as listed by the source): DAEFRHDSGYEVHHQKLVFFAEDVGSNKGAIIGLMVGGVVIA

The term IC50 denotes the point on the concentration scale where inhibition reaches its midpoint. A higher IC50 goes with a need for much substance. In the assay with VHH R3VQ, B1 displayed an IC50 of 0.016 µM.

As usually defined, the Kd is the constant that tells how readily two partners part at equilibrium. A high value points to a looser complex. In the assay with A-beta 42 peptide (Aβ42), B2 displayed a Kd of 0.017 µM. Further, the binding result with Aβ fragment 1-16 and in the assay with Aβ fragment 29-40 was “no binding” in each case.

As for B3, in the assay with A-beta 40 (Aβ40), the “binding in ELISA compared to the original VHH 1” value was approximately 10%.

For the molecule B4, the “binding in ELISA compared to the original VHH 1” value with A-beta 40 (Aβ40) is approximately 10%.
